We go through 40 sequences from the nanobody polyreactivity screen of Harvey et al. (2022).

A short description of this data set: yeast display, Sf9 membrane polyspecificity reagent, FACS + sequencing; frameworks hold sequencing errors. Put shortly:
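In a synthetic yeast display library (Saccharomyces cerevisiae BJ5465), nanobody expression was induced with galactose for 36–48 hours. FACS gates were set low and high (top ~1%) using anti-HA fluorescence for expression and streptavidin fluorescence for binding of the Sf9 membrane reagent. Each polyreactivity label is drawn from the gate of origin.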
Turning to “QVQLVESGGGLVQAGGSLRLSCAASGRTFFLNTMGWYRQAPGKERELGAAINWSDGGTYYADSVKGRFTISRDIAKNTVYLQMNSLKPEDTAVYYCAADVYWYYGAPELWYRFDYWGQGTQVTVSS”, the “polyreactivity (PSR sort gate)” value is listed as “low polyreactivity”.

As to “QVQLVESGGGLVQAGGSLRLSCAASGRTFFMYAMGRYRQAPGKERELVAAISWGGVSTYYADSVKGRFTISRDNAKNTVYLQMNSLKPEDTAVYYCNAEYYYPRGRYWYDYWGQGTQVTVSS”, the “polyreactivity (PSR sort gate)” value was “high polyreactivity”.

For “QVQLVESGGGLVQAGGSLRLSCAASGRTFFPNAMGWSRQAPGKERELVASITSRGGGTYYADSVKGRFTISRDNAKKTVYLQMNSLKPEDTAVYYCAADRYYFSPGYNWWSEGYDYWGQGTQVTVSS”, the “polyreactivity (PSR sort gate)” value is listed as “low polyreactivity”.

Regarding “QVQLVESGGGLVQAGGSLRLSCAASGRTFFPNAMGWYRPAPAKERELVAAITNGDSTHYADSVKGRFTISRDNAKNTVYLQMNSLKPEDTAVYYCAAEDHYEGYGGYYWGQGTQVTVSS”, the “polyreactivity (PSR sort gate)” value was “low polyreactivity”.

Turning to “QVQLVESGGGLVQAGGSLRLSCAASGRTFFRNAMGWDRQEPGSERELVAGISRSGGSTYYADSVKGRFTISRDNAKNTGYLQMNSLKPEDTAVYYCAAALYPYPGYEYWGQGTQVTVSS”, the “polyreactivity (PSR sort gate)” value is on record as “high polyreactivity”.

As for “QVQLVESGGGLVQAGGSLRLSCAASGRTFFRNAMGWYRQAPGKERELVAAISSSGGSTYADSVKGRFTISRDNAKNTVYLQMNSLKPEDTAVYYCAATVRGKRSTYDYWGQGTQVTVSS”, the “polyreactivity (PSR sort gate)” value is “high polyreactivity”.

Take “QVQLVESGGGLVQAGGSLRLSCAASGRTFFRYAMGWYRQAPGKERELVAAITRGGSTNYADSVKGRFTISRDNAKNTVYLQMNSLKPEDTAVYYCAKTTFSYRGHYYWGQGTQVTVSS”: the “polyreactivity (PSR sort gate)” value is given as “high polyreactivity”.

Take “QVQLVESGGGLVQAGGSLRLSCAASGRTFFSNAMGWYRPAPGKERELVAAISNGDNTYYADSVKGRFTISRDNAKNTVYLQMNSLKPEDTAVYYCAADQYWSWIYYPVVEYDYWGQGTQVTVSS”: the “polyreactivity (PSR sort gate)” value is reported as “low polyreactivity”.

For “QVQLVESGGGLVQAGGSLRLSCAASGRTFFSYAMGWYRQAPGKEMELVAAISGSGGSTYYADSVKGRFTISRDNAKNTVYLQMNSLKPEDTAVYYCNAYQTTRGLDYWGQGTQVTVSS”, the “polyreactivity (PSR sort gate)” value is reported as “low polyreactivity”.

On to “QVQLVESGGGLVQAGGSLRLSCAASGRTFFVNAMGWYRQAPGKERELVATITFSGDSTYYADSVKGRFTISRDNAKNTVYLQMNSLKPEDTAVYYCAVRWPSARIPVKLDYWGQGTQVTVSS”, for which the “polyreactivity (PSR sort gate)” value was “high polyreactivity”.

As to “QVQLVESGGGLVQAGGSLRLSCAASGRTFFVYAMGWYRQAPGKERELVASIRWRGSTYYADSVKGRFTISRDNAKNTVYLKMNSLKPEDTAVYYCAARYPYELGFDYWGQGTQVTVSS”, the “polyreactivity (PSR sort gate)” value was “low polyreactivity”.

For the sequence “QVQLVESGGGLVQAGGSLRLSCAASGRTFFVYAMGWYRQAPGKERELVASITLSRGSTYYADSVKGRFTISRDNAKNTCYLQMNSLKPEDTAVYYCSKGWSRDNDREREDEYWGQGTQVTVSS”, the “polyreactivity (PSR sort gate)” value is “low polyreactivity”.

Take “QVQLVESGGGLVQAGGSLRLSCAASGRTFFWYAMGWYRQAPGKEREFVAAITWRTGSTYYADSVKGRFTISRDNAKNTVYLQMNSLKPEDTAVYYCAAEYPWSYATYYYWGQGTQVTVSS”: the “polyreactivity (PSR sort gate)” value is “high polyreactivity”.

As for “QVQLVESGGGLVQAGGSLRLSCAASGRTFFYYAMGWYRQAPGKERELFATITKRGGSTYYADSVKGRFTISRDNAKNTVYLQMNSLKPEDTAVYYCAATYYRQGRRYLGYDYWGQGTQVTVSS”, the “polyreactivity (PSR sort gate)” value is recorded as “high polyreactivity”.

In the case of “QVQLVESGGGLVQAGGSLRLSCAASGRTFFYYAMGWYRQAPGKERELVAAISTNGGSTYYADSVKGRFTISRDNAKNTVYLQMNSMKPDDTAVYYCNTYAKPHRSGGGLGGHYYWGQGTQVTVSS”, the “polyreactivity (PSR sort gate)” value is “low polyreactivity”.

Take “QVQLVESGGGLVQAGGSLRLSCAASGRTFFYYSMGWYRQAPGKERELVATITKRGGSTYYADSVKGRFTISRDNAKNTVYLQMNSLKPEDTAVYYCNATLGRTTAVFKYYWGQGTQVTVSS”: the “polyreactivity (PSR sort gate)” value is “high polyreactivity”.

In the case of “QVQLVESGGGLVQAGGSLRLSCAASGRTFGANAMGWYRQAPGKERELVAGITSSGGSTSYADSVKGRFTISRDNAKNTVYLQMNSLKPEDTAVYYCAKDVYQHIFDVILGGYDSWGQGTQVTVSS”, the “polyreactivity (PSR sort gate)” value is reported as “low polyreactivity”.

For the sequence “QVQLVESGGGLVQAGGSLRLSCAASGRTFGFNVMGRYRQAPGKERELVAAISWSGGSTYYADSVKGRFTISRDNAKNTVYLQMTSLKPEDTAVYYCNKRYVHRYGYWGQGTQVTVSS”, the “polyreactivity (PSR sort gate)” value was “low polyreactivity”.

Consider “QVQLVESGGGLVQAGGSLRLSCAASGRTFGGNAMGWYRQAPGKERELVAAISLSGGTTYYADSVKGRFTISRDNAKNTVYLQMHSLKPEDTAVYYCAARFKSVDYVQYYYWGQGTQVTVSS”, for which the “polyreactivity (PSR sort gate)” value is recorded as “low polyreactivity”.

Take “QVQLVESGGGLVQAGGSLRLSCAASGRTFGGNAMGWYRQAPGKERELVAAITGRGGSTFYADSVKGRFTISRDNAKNTVYLQMNSLKPEDTAVYYCAKQFKRGYGYDYWGQGTQVTVSS”: the “polyreactivity (PSR sort gate)” value is reported as “low polyreactivity”.

As for “QVQLVESGGGLVQAGGSLRLSCAASGRTFGGNAMGWYRQAPGKERELVAAITGRGGSTYYADSVKGRFTISRDNAKNTVYLQMNSLKPEDTAVYYCAKQFKRGYGYDYWGQGTQVTVSS”, the “polyreactivity (PSR sort gate)” value is listed as “low polyreactivity”.

Regarding “QVQLVESGGGLVQAGGSLRLSCAASGRTFGGNGMGWYRQAPGKERELVASISFSGGAGTYYADSVKGRFTISRDIAKNTVYLQMNSLKPEDTAVYYCAKRYVTPTYRRYYWGQGTQVTVSS”, the “polyreactivity (PSR sort gate)” value is given as “high polyreactivity”.

“QVQLVESGGGLVQAGGSLRLSCAASGRTFGGNVRVWYRQAPGKERELVAAISYSGRSTHYAESVKGRFTISRDNAKNTVILQMNSLKPEDTAVYYCNKPFPYYPDGPNGYDYWGQGTKVTVSS”: the “polyreactivity (PSR sort gate)” value is listed as “low polyreactivity”.

For “QVQLVESGGGLVQAGGSLRLSCAASGRTFGGYALGWYRQAPGKARELVAAITWSDTSTYYADSVKGRFRFSRDNAKNTVYLQMNSLKPEDTAVYYCAAEQWYWWDDYWGKGTQVTVSS”, the “polyreactivity (PSR sort gate)” value is recorded as “high polyreactivity”.

In the case of “QVQLVESGGGLVQAGGSLRLSCAASGRTFGGYAMGWYRQAPGKERELVAAISSGGGTYADSVKGRFTISRDNAKNTVYLQMNSLKPEDTAVYYCAAGSRWYWAYKPTVHYYYWGQGTQVTVSS”, the “polyreactivity (PSR sort gate)” value was “high polyreactivity”.

Take “QVQLVESGGGLVQAGGSLRLSCAASGRTFGGYAMGWYRQAPGKERELVAAISYSGGSTYYADSVKGRFTISRDNAKNTVYLQMNSLKPEDTAVYYCAADGYDAYYWGQGTQVTVSS”: the “polyreactivity (PSR sort gate)” value is “low polyreactivity”.

Turning to “QVQLVESGGGLVQAGGSLRLSCAASGRTFGHNAMGWYRQAPGKERELVAAISASGSNTYYADSVKGRFTISRDNAKNTVYLQMNSLKPEDTAVYYCAKQVYRTGQQSRYDYWGQGTQVTVSS”, the “polyreactivity (PSR sort gate)” value is “low polyreactivity”.

Consider “QVQLVESGGGLVQAGGSLRLSCAASGRTFGHYAMGWYRQAPGKERELVAAISCRGTSTYYADSVKGRFTISRDNAKNTVYLQMNSLKPEDTAVYYCAAVSVTSYRYDYWGQGTQVTVSS”, for which the “polyreactivity (PSR sort gate)” value is recorded as “high polyreactivity”.

For the sequence “QVQLVESGGGLVQAGGSLRLSCAASGRTFGINAMGWYRQAPGKERELVADITDSGVSTYYADSVKGRFTISRDNAKNTVYLQMNSLKPEDTAVYYCNTGSYLFFLYGDDYWGQGTQVTVSS”, the “polyreactivity (PSR sort gate)” value was “low polyreactivity”.

As to “QVQLVESGGGLVQAGGSLRLSCAASGRTFGIYAMGRYRQAPGKERELVAAITGRGGSTHYADSVKGRFTISRDNAKNTVYLQMNSLKPEDTAVYYCAADYRYNRGITSNKDYDYWGQGTQVTVSS”, the “polyreactivity (PSR sort gate)” value is listed as “low polyreactivity”.

For the sequence “QVQLVESGGGLVQAGGSLRLSCAASGRTFGIYAMGWYRQAPGKERELVAAITWSGDSTYYADSVKGRVTISRDNAKNTVYLQMNSLKPEDTAVYYGAADYVGVTSVRYDYWGQGTQVTVSS”, the “polyreactivity (PSR sort gate)” value is listed as “low polyreactivity”.

Turning to “QVQLVESGGGLVQAGGSLRLSCAASGRTFGIYAMGWYRQAPGKERELVADITIGGSTYYADSVKGRFTISRDNAKNTVYLQMNSLKPEDTAVYYCNADVVVQYYFTYYRVFTYDYWGQGTQVTVSS”, the “polyreactivity (PSR sort gate)” value is “low polyreactivity”.

Take “QVQLVESGGGLVQAGGSLRLSCAASGRTFGIYAMGWYRQAPGKERELVASISWSGGRTYYADSVKGRFTISRDNAKNTVYLQMNSLIPEDTAVYYCAAYGVYYPRSWQYFDWYGYWGQGTQVTVSS”: the “polyreactivity (PSR sort gate)” value is listed as “high polyreactivity”.

“QVQLVESGGGLVQAGGSLRLSCAASGRTFGIYTMGWYRQAPGKERELVASTYYADSVKGRFTISRDNAKNTVYLQMNSLKPEDTAVYYCNVERLKKSQEWYGYPNDYWGQGTQVTVSS”: the “polyreactivity (PSR sort gate)” value is “low polyreactivity”.

In the case of “QVQLVESGGGLVQAGGSLRLSCAASGRTFGKYAMAWYRQAPGKERELVAAITTRVVITYYADSVKGRFTISRDNAKNTVYLQMNSLKPEDTAVYYCAADPEKIYRPVNHYYYWGQGTQVTVSS”, the “polyreactivity (PSR sort gate)” value is “low polyreactivity”.

Turning to “QVQLVESGGGLVQAGGSLRLSCAASGRTFGKYAMGWYIQAPGKEREFVAAISRSGGNTYYADSVKGRFTISRDNAKNTVYLQMNSLKPEDTAVYYCARGLSTYVLSHGLEYRTYYYWGQGTQVTVTS”, the “polyreactivity (PSR sort gate)” value is “high polyreactivity”.

Regarding “QVQLVESGGGLVQAGGSLRLSCAASGRTFGKYAMGWYRQAPGKERELVARISRRGGTTYYADSVKGRFTISRDNAKNTVYLQMNSLKPEDTAVYYCAAGGTYGAVEEAHDSWGHGTQVTVSS”, the “polyreactivity (PSR sort gate)” value is recorded as “high polyreactivity”.

As for “QVQLVESGGGLVQAGGSLRLSCAASGRTFGKYTMGWYRQAPGKQRELFAAINRRGGSTYYADSVKGRFTISRDNANNTVYLQMNSLKPEDTAVYYCSTDGYSIDRYYWGQGTQVTESS”, the “polyreactivity (PSR sort gate)” value is “high polyreactivity”.

“QVQLVESGGGLVQAGGSLRLSCAASGRTFGLNAMGWYIQAPGKERELVAAISGSGGRTYYADSVKGRFTISRDNAKNTVYLQMNSLKPEDTAVYYCARVPSGQLEYDYWGQGTQVTVSS”: the “polyreactivity (PSR sort gate)” value is recorded as “high polyreactivity”.

For the sequence “QVQLVESGGGLVQAGGSLRLSCAASGRTFGLNAMGWYRQAPGKEMELVAAITSGGSTYYADSVKGRFTISRDNAKNTVYLQMNSLKPEDTAVYYCAVTYNGDSSWPGDYWGQGTQVTVSS”, the “polyreactivity (PSR sort gate)” value is “low polyreactivity”.
